Assay [1] deals with T1, CD20 (UniProt P11836 1-297, limits assumed).
T1 construct: whole, on cells; also called CD20 positive HEK293 cells
T1 sequence (looked up): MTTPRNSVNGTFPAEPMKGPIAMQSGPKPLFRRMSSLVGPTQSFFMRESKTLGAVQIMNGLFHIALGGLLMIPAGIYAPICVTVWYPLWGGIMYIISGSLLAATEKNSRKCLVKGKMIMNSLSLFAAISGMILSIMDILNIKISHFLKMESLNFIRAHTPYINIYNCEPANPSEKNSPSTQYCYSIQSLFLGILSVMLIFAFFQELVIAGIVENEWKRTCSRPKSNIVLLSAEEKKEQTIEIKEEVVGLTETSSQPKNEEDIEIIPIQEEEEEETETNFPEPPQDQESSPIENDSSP
Description: FACS on 293T cells transfected with CD20, FMC63-PE detection.

Assay [2] has as its target T2, Clec12A (human, UniProt Q5QGZ9 1-265).
T2 construct: whole, on cells; also called CLL-1; MICL
T2 sequence (looked up): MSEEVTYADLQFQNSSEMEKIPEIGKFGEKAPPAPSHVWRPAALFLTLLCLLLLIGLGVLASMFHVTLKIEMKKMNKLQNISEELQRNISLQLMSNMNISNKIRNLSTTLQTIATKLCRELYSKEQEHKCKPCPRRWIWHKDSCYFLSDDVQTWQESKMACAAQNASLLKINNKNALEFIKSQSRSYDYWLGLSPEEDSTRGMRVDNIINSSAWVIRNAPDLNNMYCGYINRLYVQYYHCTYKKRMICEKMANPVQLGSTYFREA
Description: sandwich ELISA as for the other curves; the curve still rises at 1 ug/ml (about 1.33), no upper plateau; fit D 1.55.

In assay [3] the target is T1, CD20. Nature of the assay: FACS on CD20 positive HEK293 cells, detected with FMC63-PE.
Assay [4] has as its target T1, CD20. Nature of the assay: binding to CD20 positive HEK293 cells (method of the fit not stated); scFv-based construct #302 (Leu16 scFv), not the full mAb.
The next assay has as its target T3, EGFR (UniProt P00533 25-1210, limits assumed).
T3 construct: whole, on cells; also called EGFR positive cells; EGFR positive H292 cells
Description: binding to EGFR positive cells (data not shown).

The target in assay [5] is T2, Clec12A. Description: FACS on Clec12A expressing U937 cells, detected with a-His-PE.
The target in assay [6] is T2, Clec12A. Nature of the assay: sandwich ELISA: coated with FMC63, construct titrated (x-axis ug/ml), followed by Clec12A-bio, detected by HRP-SA.
The target in assay [7] is T2, Clec12A. Nature of the assay: FACS on Clec12A expressing U937 cells, detected with FMC63-PE.
In assay [8] the target is T2, Clec12A. Description: sandwich ELISA: coated with FMC63, construct titrated, followed by Clec12A-bio, detected by HRP-SA.
Assay [9] concerns the target T2, Clec12A. Nature of the assay: sandwich ELISA: coated with FMC63, construct titrated (x-axis ug/ml), followed by Clec12A-bio, detected by HRP-SA. This is another data set of the same source.
In assay [10] the target is T2, Clec12A. Nature of the assay: FACS on Clec12A-expressing U937 cells, % Binding against concentration, detected with FMC63-PE.
Description: (§1) In addition, bispecific constructs were generated and assayed. […] These constructs were assayed for binding to U937 cells. […] Cells were then spun, washed twice, fixed, and analyzed by FACS.
The target of assay [11] is T2, Clec12A. Nature of the assay: FACS on Clec12A-expressing U937 cells, % Binding against concentration, detected with FMC63-PE; molar value with printed MW 43.7 kDa.
Description: as §1
The target of assay [12] is T2, Clec12A. Nature of the assay: sandwich ELISA as for the other curves; the curve stays near 0.13 up to about 0.33 ug/ml and reaches only about 0.18 at 1 ug/ml (fit A 0.13, D 0.202).

Where “and” joins values, the source holds several entries; their conditions need not be identical. Equal values may be shown once. Read-outs that look alike come from different tables or passages of the source.

B1: CD19 D1+2-anti-CD20 scFv (VH/VL) (scFv)
chain: PEEPLVVKVEEGDNAVLQCLKGTSDGPTQQLTWSRESPLKPFLKLSLGLPGLGIHMRPLAIWLFIFNVSQQMGGFYLCQPGPPSEKAWQPGWTVNVEGSGELFRWNVSDLGGLGCGLKNRSSEGPSSPSGKLMSPKLYVWAKDRPEIWEGEPPCLPPRDSLNQSLSQDLTMAPGSTLWLSCGVPPDSVSRGPLSWTHVHPKGPKSLLSLELKDDRPARDMWVMETGLLLPRATAQDAGKYYCHRGNLTMSFHLEITARPGGGGSGGGGSGGGGSGGGGSMAQVKLQESGAELVKPGASVKMSCKASGYTFTSYNMHWVKQTPGQGLEWIGAIYPGNGDTSYNQKFKGKATLTADKSSSTAYMQLSSLTSEDSADYYCARSNYYGSSYWFFDVWGQGTTVTVSSGGGGSGGGGSGGGGSDIELTQSPTILSASPGEKVTMTCRASSSVNYMDWYQKKPGSSPKPWIYATSNLASGVPARFSGSGSGTSYSLTISRVEAEDAATYYCQQWSFNPPTFGGGTKLEIKRAAAHHHHHH
notes: Wild type CD19 D1+D2 N-terminal to the Leu16 scFv; also called construct #83; wild type CD19 D1+D2 fusion protein
As to B1, the EC50 with CD20 [1] was 0.379 µg/mL and 6.68 nM.

B2: #328 (VHH)
VHH: QVQLQESGGGLVQPGGSLRLSCAASGFTFNSYAMTWVRQAPGKGLEWVSDINSGGGSTNYADSVKGRFTISRDNAKNTLYLQMNSLKPEDTAVYYCATELRGSDYYRGPIREYAYWGQGTLVTVSS
notes: also called anti CLEC12a VHH 1H1-G4Sx4-CD19 C-term mutant #2-His
As to B2, the EC50 with Clec12A [2] was 0.155 µg/mL and 3.33 nM.

B3: anti-CD20 scFv-CD19 D1+2 C term mutant #2 (scFv)
chain: QVKLQESGAELVKPGASVKMSCKASGYTFTSYNMHWVKQTPGQGLEWIGAIYPGNGDTSYNQKFKGKATLTADKSSSTAYMQLSSLTSEDSADYYCARSNYYGSSYWFFDVWGQGTTVTVSSASTGGGGSGGGGSGGGGSDIELTQSPTILSASPGEKVTMTCRASSSVNYMDWYQKKPGSSPKPWIYATSNLASGVPARFSGSGSGTSYSLTISRVEAEDAATYYCQQWSFNPPTFGGGTKLEIKRAAAGGGGSGGGGSGGGGSGGGGSPEEPLVVKVEEGDTAALWCLKGTSDGPTQQLTWSRESPLKPFLKYSLGVPGLGVHVRPDAISVVIRNVSQQMGGFYLCQPGPPSEKAWQPGWTVNVEGSGELFRWNVSDLGGLGCGLKNRSSEGPSSPSGKLMSPKLYVWAKDRPEIWEGEPPCLPPRDSLNQSLSRDLTVAPGSTLWLSCGVPPDSVSRGPLSWTHVHPKGPKSLLSLELKDDRPARDMWVMGTSLMLPRATAQDAGKWYCHRGNLTMSFHLEITARPSRHHHHHH
notes: scFv of anti-CD20 mAb Leu16 fused to a CD19 variant; also called Leu16scFv-CD19 construct
Regarding B3, the EC50 with CD20 [3] is 0.161 µg/mL and 2.78 nM; in the assay with CD20 [1], 0.0754 µg/mL and 1.3 nM. In addition, the Kd in the assay with CD20 [4] is approximately 3 nM.

B4: CD19 ECD N term mutant#3-EGFR Fn3 (designed binder)
chain: PEEPLVVKVEEGDTAALWCLKGTSDGPTQQLTWSRESPLKPFLKLSLGLPGMGVHMRPGAVSAVISNVSQQMGGFYLCQPGPPSEKAWQPGWTVNVEGSGELFRWNVSDLGGLGCGLKNRSSEGPSSPSGKLMSPKLYVWAKDRPEIWEGEPPCLPPRDSLNQSLSRDMTVAPGSTLWLSCGVPPDSVSRGPLSWTHVHPKGPKSLLSLELKDDRPARDMWVMGTSLILPRATAQDAGKYYCHRGNLTMSFHLEVVARPVKAHSDLRTGGWKGGGGSGGGGSGGGGSGGGGSVSDVPRDLEVVAATPTSLLISWFDYAVTYYRITYGETGGNSPVQEFTVPGWISTATISGLKPGVDYTITVYAVTDNSHWPFRSTPISTNYRTEIDKPPQHHHHHH
notes: Fusion protein; also called construct #229; CD19-Fn3/EGFR
On to B4, for which, in the assay with EGFR, the binding result is “binds”.

B5: CD19 ECD N term mutant #2-G4Sx4-anti CLEC12a VHH 1B12-His (VHH)
chain: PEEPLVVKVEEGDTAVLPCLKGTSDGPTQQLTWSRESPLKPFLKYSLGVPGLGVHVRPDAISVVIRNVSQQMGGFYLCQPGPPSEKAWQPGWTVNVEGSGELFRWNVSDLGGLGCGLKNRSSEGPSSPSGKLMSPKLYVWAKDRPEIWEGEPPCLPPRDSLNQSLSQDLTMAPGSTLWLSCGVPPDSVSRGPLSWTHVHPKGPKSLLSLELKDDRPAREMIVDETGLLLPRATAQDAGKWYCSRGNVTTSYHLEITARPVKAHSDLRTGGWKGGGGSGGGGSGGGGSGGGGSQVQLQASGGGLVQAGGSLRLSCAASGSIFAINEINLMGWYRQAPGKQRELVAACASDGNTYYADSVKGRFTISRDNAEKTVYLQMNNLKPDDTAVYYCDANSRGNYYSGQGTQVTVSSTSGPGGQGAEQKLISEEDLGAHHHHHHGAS
notes: CD19 variant-VHH fusion; also called CD19-VHH1B12/Clec12A
For B5, the EC50 in the assay with Clec12A [5] is 0.233 µg/mL and 4.96 nM; in the assay with Clec12A [6] it was 0.004 µg/mL and 0.086 nM; in the assay with Clec12A [7], 0.155 µg/mL and 3.3 nM. The “C of the 4-P fit (midpoint)” value with Clec12A [6] is 0.00403 µg/mL.

B6: #320 (VHH)
fusion protein, single chain: PEEPLVVKVEEGDTAVLPCLKGTSDGPTQQLTWSRESPLKPFLKYSLGVPGLGVHVRPDAISVVIRNVSQQMGGFYLCQPGPPSEKAWQPGWTVNVEGSGELFRWNVSDLGGLGCGLKNRSSEGPSSPSGKLMSPKLYVWAKDRPEIWEGEPPCLPPRDSLNQSLSQDLTMAPGSTLWLSCGVPPDSVSRGPLSWTHVHPKGPKSLLSLELKDDRPAREMIVDETGLLLPRATAQDAGKWYCSRGNVTTSYHLEITARPVKAHSDLRTGGWKGGGGSGGGGSGGGGSGGGGSAVQLQESGGGLVQAGGSLRLSCAASGSDRSINVMNWYRQAPGKQRELVAAITSGGTTNYAQSVKGRVTISRDSAKNTVYLQMNSLKPEDTAVYFCKADTRWGGMYWGPGTQVTVSSTSGPGGQGAEQKLISEEDLGAHHHHHHGAS
notes: also called construct #320; CD19 mutant #2-G4Sx4-anti CLEC12a VHH 1B11 myc His
Regarding B6, in the assay with Clec12A [8], the binding result was “no binding (tested: 1 ug/ml)”.

B7: anti-CLEC12a VHH 2H3-CD19 D1+2 C term mutant #2 (VHH)
VHH: QVQLQESGGGLVQAGGSLRLSCVASGSIRSINVMGWYRQAPGKQRELVAACASDGNTYYADSVKGRFTISRDNAEKTVYLQMNNLKPDDTAVYYCDANSRGNYYSGQGTQVTVSS
notes: also called construct #330
In the case of B7, the EC50 was 0.0446 µg/mL and 0.95 nM with Clec12A [5]; 0.0168 µg/mL and 0.361 nM with Clec12A [9]; 0.0449 µg/mL in the assay with Clec12A [10]; 1.03 nM with Clec12A [11]; 0.0723 µg/mL and 1.54 nM in the assay with Clec12A [7]. In addition, the “C of the 4-P fit (midpoint)” value in the assay with Clec12A [9] was 0.0168 µg/mL. Moreover, in the assay with Clec12A [10], the “EC50 (read off the curve)” value is approximately 0.05 µg/mL.

B8: #331 (VHH)
VHH: QVQLQQSGGGLVQAGGSLTLSCAATGRTIDNGAMAWFRQAPGKQRELVAAINWSGGATFYTDSVKYRFTISRDNVRHTLDLQMTSLKPEDTTIYFCASRRGVDLRRNSYEYDYWGRGTLVTVSS
notes: also called anti CLEC12a VHH 2C2-G4Sx4-CD19 C-term mutant #2-His
In the case of B8, the EC50 with Clec12A [12] is 0.698 µg/mL and 15 nM.

B9: CD19 ECD N term mutant#-EGFR Fn3 (designed binder)
chain: PEEPLVVKVEEGDTAALWCLKGTSDGPTQQLTWSRESPLKPFLKYSLGVPGMGVHVRPNAVSLVISNVSQQMGGFYLCQPGPPSEKAWQPGWTVNVEGSGELFRWNVSDLGGLGCGLKNRSSEGPSSPSGKLMSPKLYVWAKDRPEIWEGEPPCLPPRDSLNQSLSRDMTVAPGSTLWLSCGVPPDSVSRGPLSWTHVHPKGPKSLLSLELKDDRPARDMWVMETGLVLPRATAQDAGKWYCHRGNVTTSYHLEITARPVSAHTPLRTGGWKGGGGSGGGGSGGGGSGGGGSVSDVPRDLEVVAATPTSLLISWFDYAVTYYRITYGETGGNSPVQEFTVPGWISTATISGLKPGVDYTITVYAVTDNSHWPFRSTPISTNYRTEIDKPPQHHHHHH
notes: Fusion protein; also called construct #230; CD19-Fn3/EGFR
Regarding B9, the binding result in the assay with EGFR was “binds”.

The values are drawn from patent US20210079060A1 (ALETA BIOTHERAPEUTICS, published 2021).
